Results from US20180344844A1 (SCHOLAR ROCK, published 2018).
Changes are numbered by the printed parent chain. Names may count otherwise. Like-named read-outs stand apart in the source and are kept apart here. Values belong to the binder of their own block, whether it stands above or below them.

Tests used:
proGDF8 (human) [1] = target: T1, proGDF8 (human) (human, UniProt O14793 24-375); test: cell-based or functional assay
proGDF8 (mouse) [2] = target: T2, proGDF8 (mouse) (mouse, UniProt O08689 25-376); test: cell-based or functional assay
proGDF11 (human) [3] = target: T3, proGDF11 (human) (human, UniProt O95390 25-407); test: ForteBio BLI; biotinylated proGDF11 on streptavidin tip, 30 µg/mL antibody, response after 5 minutes of association relative to proGDF8
T3 construct: domain: proGDF11 (prodomain plus growth factor domain)
Protocol: In this assay, biotinylated proGDF11 or biotinylated proMyostatin was immobilized on a ForteBio BLI streptavidin-coated sensor tip, which was applied to wells containing 30 μg/mL of antibody. Interactions of the analyte with the protein immobilized on the chip are measured by the magnitude of the response of the biosensor chip. The biosensor response after 5 minutes of association (a saturating signal for proGDF8) was compared between the two antigens, and expressed as the percent response for GDF8 binding.

proGDF8 (mouse) [4] = target: T2, proGDF8 (mouse); test: cell-based or functional assay; remark: listed apart in the source
Pro Activin A [5] = target: T4, Pro Activin A (human, UniProt P08476 21-426); test: ForteBio Octet BLI; biotinylated antigen on streptavidin tip, Ab1 in solution
T4 construct: domain: pro form (prodomain plus growth factor domain)
T4 sequence (looked up): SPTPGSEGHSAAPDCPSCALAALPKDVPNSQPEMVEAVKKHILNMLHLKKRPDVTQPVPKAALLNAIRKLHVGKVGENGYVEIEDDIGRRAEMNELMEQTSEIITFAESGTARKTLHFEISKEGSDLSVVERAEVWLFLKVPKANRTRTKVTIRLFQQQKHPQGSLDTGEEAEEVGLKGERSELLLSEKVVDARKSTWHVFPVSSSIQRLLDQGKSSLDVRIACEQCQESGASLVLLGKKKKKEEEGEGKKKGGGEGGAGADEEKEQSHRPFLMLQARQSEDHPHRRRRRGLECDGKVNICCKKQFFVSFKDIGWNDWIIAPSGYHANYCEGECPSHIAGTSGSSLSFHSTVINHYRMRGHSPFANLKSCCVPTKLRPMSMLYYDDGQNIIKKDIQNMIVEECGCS

proGDF11 (human) [6] = target: T3, proGDF11 (human); test: as above
Mature GDF11 [7] = target: T5, Mature GDF11 (UniProt O95390 299-407, limits assumed); test: ForteBio Octet BLI; antigen on the tip (direct amine coupling), Ab1 in solution
T5 construct: mature; also called GDF11 mature growth factor

BMP10 [8] = target: T6, BMP10 (UniProt O95393 317-424, limits assumed); test: as above
T6 construct: mature
T6 sequence (looked up): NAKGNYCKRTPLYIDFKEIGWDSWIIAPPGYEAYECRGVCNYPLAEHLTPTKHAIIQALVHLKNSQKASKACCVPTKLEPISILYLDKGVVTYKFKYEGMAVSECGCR

Mature Activin A [9] = target: T7, Mature Activin A (UniProt P08476 311-426); test: as above
T7 construct: mature; also called Activin A growth factor
T7 sequence (looked up): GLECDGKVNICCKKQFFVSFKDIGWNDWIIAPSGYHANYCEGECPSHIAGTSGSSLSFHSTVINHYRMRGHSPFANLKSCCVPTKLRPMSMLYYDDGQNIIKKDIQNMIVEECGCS

Mature GDF8 [10] = target: T8, Mature GDF8 (UniProt O14793 267-375, limits assumed); test: as above
T8 construct: mature; Amine-coupled to the biosensor tips; also called mature myostatin; mature growth factor of Myostatin

Mature TGFB1 [11] = target: T9, Mature TGFB1 (UniProt P01137 279-390); test: as above
T9 construct: mature; also called mature TGFβ1

BMP 9 [12] = target: T10, BMP 9 (UniProt Q9UK05 320-429, limits assumed); test: as above
T10 construct: mature
T10 sequence (looked up): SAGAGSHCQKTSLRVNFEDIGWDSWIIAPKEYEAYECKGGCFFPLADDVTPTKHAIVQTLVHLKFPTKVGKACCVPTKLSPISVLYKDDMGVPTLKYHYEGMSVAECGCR

Pro Activin A [13] = target: T4, Pro Activin A; test: ForteBio Octet BLI; antigen on biosensor, antibody in solution
Protocol: (§1) Binding affinities of antibody candidates were determined using the FortéBio Octet QKe dip and read label free assay system utilizing bio-layer interferometry. Antigens were immobilized to biosensors (streptavidin-coated biosensors for proGDF8, proGDF11 and proActivin; direct amine coupling for all others) in each experiment and the antibodies/constructs were presented in solution at high concentration (50 μg/mL) to measure binding interactions.
(§2) Binding affinities of antibodies were determined using the FortéBio Octet QKe dip and read label free assay system utilizing bio-layer interferometry. Human proGDF8, latent GDF8, proGDF11 and proActivin were biotinylated and immobilized to streptavidin-coated biosensors (FortéBio). Mature growth factors were immobilized via direct amine coupling to amine reactive tips according to manufacturer's instructions (FortéBio). In each experiment, the antibodies/constructs were presented in solution at a single high concentration (50 μg/mL) to measure binding interactions.

Mature GDF11 [14] = target: T5, Mature GDF11; test: as above
Protocol: as §1, §2

BMP10 [15] = target: T6, BMP10; test: as above
Protocol: as §1, §2

Mature Activin A [16] = target: T7, Mature Activin A; test: as above
Protocol: as §1, §2

Mature GDF8 [17] = target: T8, Mature GDF8; test: as above
Protocol: as §1, §2

Mature TGFB1 [18] = target: T9, Mature TGFB1; test: as above
Protocol: as §1, §2

BMP 9 [19] = target: T10, BMP 9; test: as above
Protocol: as §1, §2

proGDF8 (mouse) [20] = target: T2, proGDF8 (mouse); test: cell-based or functional assay; remark: listed apart in the source
proGDF8 (human) [21] = target: T1, proGDF8 (human); test: Octet binding kinetics to pro- and latent-Myostatin, compared with parental Ab1
latent GDF8 (human) = target: T11, latent GDF8 (human) (human, UniProt O14793 24-266; O14793 267-375); test: as above
T11 construct: proGDF8 cleaved by a proprotein convertase; the split after 243 is inferred from that; also called human latent Myostatin; Human latent GDF8

B3: Ab1 parental antibody, IgG4 (S228P), lambda (antibody, V domains shown)
VH: QIQLVQSGGGVVQPGRSLRLSCAASGFTFSSYGMHWVRQAPGKGLEWVAVISYDGSNKYYADSVKGRFTISRDNSKNTLYLQMNSLRAEDTAVYYCARDLLVRFLEWSHYYGMDVWGQGTTVTVSS
VL: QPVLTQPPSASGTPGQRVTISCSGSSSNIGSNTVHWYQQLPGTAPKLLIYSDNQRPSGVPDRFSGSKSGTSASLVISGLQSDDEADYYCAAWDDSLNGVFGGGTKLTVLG
notes: also called parental Ab1 IgG4; 24H4 (WT); copies: 2 + 2
GDF11 response, expressed as a percentage of GDF8 response (proGDF11 (human) [3]): 1.33%
Activity Assay - 293T cells EC50 (proGDF8 (mouse) [4]): 0.839 µM
binding result (Pro Activin A [5]): no binding (tested: 50 ug/mL)
binding result (proGDF11 (human) [6]): no binding (tested: 50 ug/mL)
binding result (Mature GDF11 [7]): no binding (tested: 50 ug/mL)
binding result (BMP10 [8]): no binding (tested: 50 ug/mL)
binding result (Mature Activin A [9]): no binding (tested: 50 ug/mL)
binding result (Mature GDF8 [10]): no binding (tested: 50 ug/mL)
binding result (Mature TGFB1 [11]): no binding (tested: 50 ug/mL)
binding result (BMP 9 [12]): no binding (tested: 50 ug/mL)

B4: Ab4 (Ab3 with germline framework residues), IgG4 (S228P), lambda (antibody, V domains shown)
VH: B3 VH with I2V, Q6E, T28A, N57I, Y110K
VL: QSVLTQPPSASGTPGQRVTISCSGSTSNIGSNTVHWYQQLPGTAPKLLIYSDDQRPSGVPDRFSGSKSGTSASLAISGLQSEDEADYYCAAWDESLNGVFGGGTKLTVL
notes: human IgG4/lambda framework with S228P; also called Ab4 germline
GDF11 response, expressed as a percentage of GDF8 response (proGDF11 (human) [3]): 2.51%
binding result (Pro Activin A [13]): no binding (tested: 50 µg/mL)
binding result (Mature GDF11 [14]): no binding (tested: 50 µg/mL)
binding result (BMP10 [15]): no binding (tested: 50 µg/mL)
binding result (Mature Activin A [16]): no binding (tested: 50 µg/mL)
binding result (Mature GDF8 [17]): no binding (tested: 50 µg/mL)
binding result (Mature TGFB1 [18]): no binding (tested: 50 µg/mL)
binding result (BMP 9 [19]): no binding (tested: 50 µg/mL)
Activity Assay - 293T cells EC50 (proGDF8 (mouse) [20]): 0.447 µM

B7: Ab6 (Ab5 with germline framework residues), IgG4 (S228P), lambda (antibody, V domains shown)
VH: B3 VH with I2V, Q6E, T28A, S56N, Y110K
VL: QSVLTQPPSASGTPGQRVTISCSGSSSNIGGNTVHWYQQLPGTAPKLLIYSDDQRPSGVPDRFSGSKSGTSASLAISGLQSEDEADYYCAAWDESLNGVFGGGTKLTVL
notes: human IgG4/lambda framework with S228P; also called Ab6 germline
GDF11 response, expressed as a percentage of GDF8 response (proGDF11 (human) [3]): 2.07%
binding result (Pro Activin A [13]): no binding (tested: 50 µg/mL)
binding result (Mature GDF11 [14]): no binding (tested: 50 µg/mL)
binding result (BMP10 [15]): no binding (tested: 50 µg/mL)
binding result (Mature Activin A [16]): no binding (tested: 50 µg/mL)
binding result (Mature GDF8 [17]): no binding (tested: 50 µg/mL)
binding result (Mature TGFB1 [18]): no binding (tested: 50 µg/mL)
binding result (BMP 9 [19]): no binding (tested: 50 µg/mL)

B8: Ab7 (antibody, V domains shown)
VH: QVQLQQSGAEVKKPGASVKVSCKASGYTFTSYYMHWVRQAPGQGLEWMGIINPSGGSTSYAQKFQGRVTMTRDTSTSTVYMELSSLRSEDTAVYYCARESLIRFLEDPQQGGMDVWGQGTTVTVSS
VL: QSALTQPASVSGSPGQSLTISCTGTSSDIGGYNYVSWYQQHPGKAPKLIIYDVTDRPSGVSGRFSGSKSGNTASLTISGLQTEDEAEYFCNSWTRSNNYIFGGGTKLTVLG
Human proGDF8 IC50 (µM) Reporter assay (proGDF8 (human) [1]): 0.983 µM
Murine proGDF8 IC50 (µM) Reporter assay (proGDF8 (mouse) [2]): 1.68 µM

Now from value to binder:

Human proGDF8 IC50 (µM) Reporter assay (proGDF8 (human) [1]): 6.04 µM
Murine proGDF8 IC50 (µM) Reporter assay (proGDF8 (mouse) [2]): 139 µM
B1: Ab8 (antibody, V domains shown)
VH: QIQLVQSGAEVKKPGASVKVSCKASGYTFTSYGISWVRQAPGQGLEWMGWISAYNGNTNYAQKLQGRVTMTTDTSTSTAYMELSSLRSEDTAVYYCARVGFYDYVWGSYPYDAFDIWGQGTMVTVSS
VL: EIVMTQSPGTLSLSPGERATLSCRASQSVSSNYLAWYQQKPGQAPRLLIYDASNRATGIPARFSGSGSGTDFTLTISSLEPEDFALYYCQQYGTSPLTFGGGTKLEIKR

Human proGDF8 IC50 (µM) Reporter assay (proGDF8 (human) [1]): 0.772 µM
B2: Ab10 (antibody, V domains shown)
VH: EVQLVQSGGGVVQSGRSLRLSCVASGFSFSNYGMHWVRQAPGKGLEWLAFIWYDGSNKWYADSVKGRFTISRDNSKNALYLQMNSLRAEDTAVYYCARDRYSSSWGGGFDYWGQGTVLTVSS
VL: NFMLTQPHSVSESPGRTVTIPCSGRGGSIASDSVQWYQQRPGSAPTTIIYEDNQRPSGVPDRFSGSVDSSSNSASLTISGLRTEDEADYYCQSYDASSLWVFGGKTKLTVLG

binding result (proGDF8 (human) [21]): binds
binding result (latent GDF8 (human)): binds
B5: Ab3 (affinity optimized variant of Ab1, parental frameworks) (antibody, IgG4, V domains shown)
VH: B3 VH with T28A, N57I, Y110K
VL: QPVLTQPPSASGTPGQRVTISCSGSTSNIGSNTVHWYQQLPGTAPKLLIYSDDQRPSGVPDRFSGSKSGTSASLVISGLQSDDEADYYCAAWDESLNGVFGGGTKLTVLG
notes: also called Ab3 parental; copies: 2 + 2

binding result (proGDF8 (human) [21]): binds
binding result (latent GDF8 (human)): binds
B6: Ab5 (affinity optimized variant of Ab1, parental frameworks) (antibody, IgG4, V domains shown)
VH: B3 VH with T28A, S56N, Y110K
VL: B5 VL with T26S, S31G
notes: also called Ab5 parental; copies: 2 + 2

Human proGDF8 IC50 (µM) Reporter assay (proGDF8 (human) [1]): 12.2 µM
Murine proGDF8 IC50 (µM) Reporter assay (proGDF8 (mouse) [2]): 19.9 µM
B9: Ab9 (antibody, V domains shown)
VH: QVQLVQSGAEVKKPGSSVKVSCKASGGTFSSYAISWVRQAPGQGLEWMGGIIPIFGTANYAQKFQGRVTITADESTSTAYMELSSLRSEDTAVYYCANHGLMDDSSGYYLSNAFDIWGQGTMVTVSS
VL: not shown
